Source: US20250179196A1 (Janssen / Centocor, published 2025)
Substitutions are numbered along the chain they refer to.

B1: I23RB1 (antibody, mouse IgG2a, kappa, V domains shown)
VH: QVQLVQSGAEVKKPGSSVKVSCKASGGTFKNYAISWVRQAPGQGLEWMGWIRPIFGTAYYAQKFQGRVTITADESTSTAYMELSSLRSEDTAVYYCARDSGSRYAGRYAFDYWGQGTLVTVSS
VL: EIVLTQSPATLSLSPGERATLSCRASQSVSSYLAWYQQKPGQAPRLLIYDASNRATGIPARFSGSGSGTDFTLTISSLEPEDFAVYYCQQRSNWPLTFGQGTKVEIKR
notes: phage display; human V, mouse IgG2a/kappa
B2: I23RB3 (antibody, mouse IgG2a, kappa, V domains shown)
VH: QVQLVQSGAEVKKPGSSVKVSCKASGGTFKSYSIHWVRQAPGQGLEWMGGIIPYFGYANYAQKFQGRVTITADESTSTAYMELSSLRSEDTAVYYCARERGYYGSIYYGGGFDYWGQGTLVTVSS
VL: B1 VL
notes: as for B1
B3: I23RB4 (antibody, mouse IgG2a, kappa, V domains shown)
VH: QVQLVQSGAEVKKPGSSVKVSCKASGGTFKTYAIHWVRQAPGQGLEWMGWIIPIFGTANYAQKFQGRVTITADESTSTAYMELSSLRSEDTAVYYCARDGGYYGSRYYPRSYYFDYWGQGTLVTVSS
VL: B1 VL
notes: as for B1
B4: I23RB7 (antibody, mouse IgG2a, kappa, V domains shown)
VH: QIQLVQSGPELKKPGETVKISCKASGYTFTTYGMSWVKQAPGKGLKWMGWINTYSGVPTYADDFKGRFAFSLETSASTAYLQINNLKNEDTATYYCARRDRYGYVAGAFAYWGQGTLVTVSS
VL: QIVLTQSPAIMSASPGEKVTMTCSASSSVSYMYWYQQKPGSSPRLLIYDTSNLASGVPVRFSGSGSGTSYSLTISRMEAEDAATYYCQQWSSYPWTFGGGTKLEIKR
notes: phage display; mouse V, mouse IgG2a/kappa
B5: I23RB2 (antibody, mouse IgG2a, kappa, V domains shown)
VH: QVQLVQSGAEVKKPGSSVKVSCKASGGTFSSYAISWVRQAPGQGLEWMGGIIPIFGTANYAQKFQGRVTITADESTSTAYMELSSLRSEDTAVYYCARDRYRYLGANGFDYWGQGTLVTVSS
VL: B1 VL
notes: as for B1
B6: I23RB189 (antibody, mouse IgG2a, kappa, V domains shown)
VH: DVQLQESGPDLVKPSQSLSLTCTVTGYSITSGYNWHWIRQFPGNKLEWMGYIHSSGTTNYSPSLRSRLSITRDTSKNQFFLQLNSVTTEDTATYYCTRQLGLKAMEYWGQGTTLTVSS
VL: DIVLTQSPKSMSMSVGERVTLSCKASENVGTYVSWYQQKPEQSPKLLMYGASNRYTGVPDRFTGSGSATDFTLTISSVQAEDLADYHCGQSYSYPPTFGGGTKLEIKR
notes: immunization; mouse IgG2a/kappa
B7: I23RB149 (antibody, mouse IgG2a, kappa, V domains shown)
VH: B6 VH with S54F, G56D, T57R, S61N, R65K, L68I, T88S, T97S, M105L, E106D
VL: DVQMIQSPLSLPVSLGDQASISCRSSQSLVHSNGNTYLHWYLQKPGQSPKLLIYKVSNRFSGVPDRFSGSGSGTDFTLKISRVEAEDLGVYFCSQSTHVPLTFGAGTRLEIKR
notes: as for B6

Target: T1, human IL-23R expressed on the cell surface of stably transfected iLite and HEK cell lines (human, UniProt Q5VWK5 24-629)
T1 construct: whole, on cells; Same receptor on two transfected cell lines; the cell line is named under assay; also called human IL-23R iLite cells; human IL-23R HEK cells
T1 sequence (looked up): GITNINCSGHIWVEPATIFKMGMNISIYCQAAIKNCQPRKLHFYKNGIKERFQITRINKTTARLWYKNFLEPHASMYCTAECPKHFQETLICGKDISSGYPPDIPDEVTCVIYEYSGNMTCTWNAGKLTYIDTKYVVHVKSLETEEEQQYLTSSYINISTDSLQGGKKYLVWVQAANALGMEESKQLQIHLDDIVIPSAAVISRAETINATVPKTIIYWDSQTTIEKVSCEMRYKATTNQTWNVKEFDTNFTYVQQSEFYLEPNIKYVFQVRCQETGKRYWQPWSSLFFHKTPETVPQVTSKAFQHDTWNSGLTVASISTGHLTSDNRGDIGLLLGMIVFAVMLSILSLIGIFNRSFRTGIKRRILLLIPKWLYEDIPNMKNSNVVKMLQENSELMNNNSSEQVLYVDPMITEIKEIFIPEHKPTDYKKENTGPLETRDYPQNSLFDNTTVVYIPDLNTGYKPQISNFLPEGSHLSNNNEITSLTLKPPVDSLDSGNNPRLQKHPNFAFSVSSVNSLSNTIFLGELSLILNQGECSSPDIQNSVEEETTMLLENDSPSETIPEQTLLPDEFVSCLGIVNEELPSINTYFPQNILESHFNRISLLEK
Test: flow cytometry on human IL-23R HEK cells, Expt E (11-point, 384well)
Outline: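 Antibody bound to HEK-IL-23R cells 30 min at 37 °C over 11 concentrations; after washes, Sytox Green added and cells run on iQue. Geometric MFI of 647 detection antibody on single viable cells fitted by variable-slope dose–response.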

**Q.** With B1 as the binder, how does the “MFI (6.4 nM)” value read?
**A.** 287000 MFI

**Q.** How did the “MFI (6.4 nM)” value turn out when B2 was run?
**A.** 149000 MFI

**Q.** Which “MFI (6.4 nM)” value does the source give for B3 here?
**A.** 225000 MFI

**Q.** How did the “MFI (6.4 nM)” value turn out when B4 was run?
**A.** 172000 MFI

Target: T1, human IL-23R expressed on the cell …
Test: flow cytometry on human IL-23R iLite cells, Expt B (1-point)
Experimental: Human IL-23R iLiTe cell single concentration mAb Binding. Anti-IL-23R mouse IgG₂ₐ mAbs derived from phage panning were tested for binding to human IL-23R expressing iLiTe cells, where a PE conjugated anti mouse secondary antibody detected mAbs bound to the receptor on the cells. […] The next day 100,000 cells were added to each well of a 96 well V bottom plate (Costar, Catalog #3357), centrifuged at 450× gravity for 2 minutes, and then supernatants were decanted. […] Cells were washed by adding 100 μL/well of Stain Buffer followed by centrifugation and decanting of the supernatants. Cells were resuspended in 100 μL/well of Stain Buffer and analyzed on the Becton Dickenson LSR II FACS instrument with HTS module. Data was analyzed using FlowJo software (Treestar) to obtain geometric mean fluorescence intensities.

**Q.** B1 was tested. Which “MFI @ 0.7 nM” value did it give?
**A.** 2990 MFI

**Q.** How did the “MFI @ 0.7 nM” value turn out when B5 was run?
**A.** 670 MFI

**Q.** B2 was tested. Which “MFI @ 0.7 nM” value did it give?
**A.** 1460 MFI

**Q.** How did the “MFI @ 0.7 nM” value turn out when B3 was run?
**A.** 2990 MFI

**Q.** With B4 as the binder, how does the “MFI @ 0.7 nM” value read?
**A.** 2230 MFI

Target: T1, human IL-23R expressed on the cell …
Test: flow cytometry on human IL-23R iLite cells, Expt C (12-point), Gate 2
Experimental: (§1) Human IL-23R iLiTe cell concentration response mAb binding. […] The next day 100,000 cells were added to each well of a 96 well V bottom plate (Costar, Catalog #3357), centrifuged at 450× gravity for 2 minutes, and then supernatants were decanted. Antibodies were diluted in Stain Buffer (BSA) (BD Pharmagen, Catalog #554657) and added at 50 μL/well, and mixed. Plates were incubated on ice for 50 minutes, then plates were centrifuged and supernatants were decanted. […] Cells were washed by adding 200 μL/well of Stain Buffer followed by centrifugation and decanting of the supernatants. Cells were resuspended in 100 μL/well of Stain Buffer, transferred in quadruplicate to a 384 well plate (Greiner, Catalog #781281) and analyzed on the Becton Dickenson LSR II FACS instrument with HTS module. Data was analyzed using FlowJo software (Treestar) to obtain geometric mean fluorescence intensities, and geometric mean fluorescence intensities were plotted over log mAb concentrations fitted with a sigmoidal dose response curve with variable slope using GraphPad Prism.

**Q.** Which EC50 does the source give for B1 here?
**A.** 0.02 nM

**Q.** For B5, which EC50 is on record?
**A.** 1.11 nM

**Q.** B2 was tested. Which EC50 did it give?
**A.** 0.37 nM

**Q.** With B3 as the binder, how does the EC50 read?
**A.** 0.03 nM

**Q.** B4 was tested. Which EC50 did it give?
**A.** 0.1 nM

Target: T1, human IL-23R expressed on the cell …
Test: flow cytometry on human IL-23R iLite cells, Expt C (12-point), Gate 1 + 2
Experimental: as §1

**Q.** Which EC50 does the source give for B1 here?
**A.** 0.26 nM

**Q.** B5 was tested. Which EC50 did it give?
**A.** 1.09 nM

**Q.** Which EC50 does the source give for B2 here?
**A.** 0.66 nM

**Q.** How did the EC50 turn out when B3 was run?
**A.** 0.04 nM

**Q.** How did the EC50 turn out when B4 was run?
**A.** 0.07 nM

Target: T1, human IL-23R expressed on the cell …
Test: flow cytometry on human IL-23R iLite cells, Expt A (1-point)
Experimental: Human IL-23R iLiTe cell single concentration mAb Binding. Anti-IL-23R mouse IgG₂ₐ mAbs derived from phage panning were tested for binding to human IL-23R expressing iLiTe cells, where a PE conjugated anti mouse secondary antibody detected mAbs bound to the receptor on the cells. […] The next day 100,000 cells were added to each well of a 96 well V bottom plate (Costar, Catalog #3357), centrifuged at 450× gravity for 2 minutes, and then supernatants were decanted. […] Antibodies diluted to 3 μg/mL in Stain Buffer (BSA) (BD Pharmagen, Catalog #554657) were added at 100 μL/well and incubated on ice for 50 minutes, then plates were centrifuged and supernatants were decanted. […] Cells were washed by adding 100 μL/well of Stain Buffer followed by centrifugation and decanting of the supernatants. Cells were resuspended in 100 μL/well of Stain Buffer and analyzed on the Becton Dickenson LSR II FACS instrument with HTS module. Data was analyzed using FlowJo software (Treestar) to obtain geometric mean fluorescence intensities.

**Q.** With B1 as the binder, how does the “MFI @ 20 nM” value read?
**A.** 5090 MFI

**Q.** How did the “MFI @ 20 nM” value turn out when B5 was run?
**A.** 4110 MFI

**Q.** With B2 as the binder, how does the “MFI @ 20 nM” value read?
**A.** 4320 MFI

**Q.** How did the “MFI @ 20 nM” value turn out when B3 was run?
**A.** 4390 MFI

**Q.** B4 was tested. Which “MFI @ 20 nM” value did it give?
**A.** 4320 MFI

Target: T2, human IL-23R extracellular domain (ECD) protein (human, UniProt Q5VWK5 24-355)
T2 construct: Recombinant ECD; also called hu IL-23R ECD
T2 sequence: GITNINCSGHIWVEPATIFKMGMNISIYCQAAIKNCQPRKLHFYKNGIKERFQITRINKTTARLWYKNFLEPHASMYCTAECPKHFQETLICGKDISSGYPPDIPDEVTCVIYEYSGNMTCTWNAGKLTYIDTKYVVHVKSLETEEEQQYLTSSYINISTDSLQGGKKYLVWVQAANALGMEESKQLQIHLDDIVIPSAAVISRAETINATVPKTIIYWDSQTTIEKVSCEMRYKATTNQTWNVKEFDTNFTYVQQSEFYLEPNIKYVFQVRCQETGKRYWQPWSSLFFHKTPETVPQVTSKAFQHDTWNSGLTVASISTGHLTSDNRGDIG
Test: column 'Affinity to hu IL-23R ECD' (summary of SPR data)

**Q.** B4 was tested. Which Kd did it give?
**A.** 1 nM

Target: T1, human IL-23R expressed on the cell …
Test: flow cytometry on human IL-23R HEK cells, Expt D (8-point, 96well); legend: N-No cell binding observed
Experimental: HEK-IL-23R cell concentration response mAb binding (8-point, 96-well assay). […] HEK-IL-23R and HEK-parental cells (12.5 μL of each, 120000 cells total) were plated in 2× replicate on 96-well V-bottom plates (Corning, Cat #3357) into 37° C. warmed Assay medium containing serially diluted IL-23R mAbs to a final volume of 150 μL. IL-23R mAbs were allowed to bind to cells for 30 minutes, at 37° C. […] Cells were next washed twice in ice-cold stain buffer, then resuspended in a final volume of 30 μL with Sytox Green viability dye (ThermoFisher, Cat #S7020). Plates were kept on ice until run for analysis on the iQue. All washes were performed by centrifugation (800 rcf, 3 minutes) followed by flick decantation to remove supernatants. Cell-binding to HEK-IL-23R cells was measured with FlowJo, by gating for single, viable cells and determining the geometric mean fluorescence intensity (MFI) for the 647 detection antibody. Geometric mean fluorescence intensities were plotted over log mAb concentrations fitted with a dose response curve with variable slope using GraphPad Prism.

**Q.** Does B6 bind?
**A.** no binding

**Q.** Does B7 bind?
**A.** no binding
